Starred links: 1 amine or outer side, 2 acyl side, 3 side chain; linkers in the order of their positions; H or OH if unused. Non-standard residues stand in square brackets, D forms with d. Groups on a side chain read outwards from the residue. No end group written: not given here. *: point of attachment. C20 diacid = O=C(O)CCCCCCCCCCCCCCCCCCC(=O)*; C18 diacid = O=C(O)CCCCCCCCCCCCCCCCC(=O)*; γGlu = O=C(O)[C@H](CCC(=O)[*:2])N[*:1]; αMeF = C[C@](N)(Cc1ccccc1)C(=O)O; AEEA = NCCOCCOCC(=O)O; Aib = CC(C)(N)C(=O)O
Assays:
[1] = molecular target: human GLP-1 receptor (hGLP-1R) (human, UniProt P43220 24-463); experiment: cell-based or functional assay
[2] = molecular target: human glucagon receptor (hGCGR) (human, UniProt P47871 26-477); experiment: cell-based or functional assay
Chain of human glucagon receptor (hGCGR) (P47871 26-477): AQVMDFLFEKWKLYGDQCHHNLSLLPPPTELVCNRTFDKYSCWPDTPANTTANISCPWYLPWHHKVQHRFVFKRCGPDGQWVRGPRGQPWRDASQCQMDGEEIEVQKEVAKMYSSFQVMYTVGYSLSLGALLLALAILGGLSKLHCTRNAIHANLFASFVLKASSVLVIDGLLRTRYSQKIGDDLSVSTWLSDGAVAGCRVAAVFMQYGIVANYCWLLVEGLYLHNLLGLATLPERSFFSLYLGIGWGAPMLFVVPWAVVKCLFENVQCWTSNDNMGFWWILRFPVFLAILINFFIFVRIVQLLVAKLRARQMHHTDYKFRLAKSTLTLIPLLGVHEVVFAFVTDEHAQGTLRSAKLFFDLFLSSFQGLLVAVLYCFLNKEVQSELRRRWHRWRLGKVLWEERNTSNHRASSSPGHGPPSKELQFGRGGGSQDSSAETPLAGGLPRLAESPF

| Binder | hGLP-1R EC50 (pM) [1] | hGluc-R EC50 (pM) [2] |
| --- | --- | --- |
| H[Aib]QGTFTSDVSK[αMeF]LDTK([AEEA-AEEA-γGlu-C20 diacid])RARDFVRWLL[Aib]E-OH (N-terminus assumed; SMILES CC(C)C[C@H](NC(=O)[C@H](Cc1c[nH]c2ccccc12)NC(=O)[C@H](CCCNC(=N)N)NC(=O)[C@@H](NC(=O)[C@H](Cc1ccccc1)NC(=O)[C@H](CC(=O)O)NC(=O)[C@H](CCCNC(=N)N)NC(=O)[C@H](C)NC(=O)[C@H](CCCNC(=N)N)NC(=O)[C@H](CCCCNC(=O)COCCOCCNC(=O)COCCOCCNC(=O)CC[C@H](NC(=O)CCCCCCCCCCCCCCCCCCC(=O)O)C(=O)O)NC(=O)[C@@H](NC(=O)[C@H](CC(=O)O)NC(=O)[C@H](CC(C)C)NC(=O)[C@](C)(Cc1ccccc1)NC(=O)[C@H](CCCCN)NC(=O)[C@H](CO)NC(=O)[C@@H](NC(=O)[C@H](CC(=O)O)NC(=O)[C@H](CO)NC(=O)[C@@H](NC(=O)[C@H](Cc1ccccc1)NC(=O)[C@@H](NC(=O)CNC(=O)[C@H](CCC(N)=O)NC(=O)C(C)(C)NC(=O)[C@@H](N)Cc1c[nH]cn1)[C@@H](C)O)[C@@H](C)O)C(C)C)[C@@H](C)O)C(C)C)C(=O)N[C@@H](CC(C)C)C(=O)NC(C)(C)C(=O)N[C@@H](CCC(=O)O)C(=O)O) [Peptide 510] | 176 pM | 118 pM |
| H[Aib]QGT[αMeF]TSDVSK[αMeF]LDTK([AEEA-AEEA-γGlu-C18 diacid])RARD[αMeF]VQWLLA[Aib]G-NH2 (N-terminus assumed; SMILES CC(C)C[C@H](NC(=O)[C@H](CC(C)C)NC(=O)[C@H](Cc1c[nH]c2ccccc12)NC(=O)[C@H](CCC(N)=O)NC(=O)[C@@H](NC(=O)[C@](C)(Cc1ccccc1)NC(=O)[C@H](CC(=O)O)NC(=O)[C@H](CCCNC(=N)N)NC(=O)[C@H](C)NC(=O)[C@H](CCCNC(=N)N)NC(=O)[C@H](CCCCNC(=O)COCCOCCNC(=O)COCCOCCNC(=O)CC[C@H](NC(=O)CCCCCCCCCCCCCCCCC(=O)O)C(=O)O)NC(=O)[C@@H](NC(=O)[C@H](CC(=O)O)NC(=O)[C@H](CC(C)C)NC(=O)[C@](C)(Cc1ccccc1)NC(=O)[C@H](CCCCN)NC(=O)[C@H](CO)NC(=O)[C@@H](NC(=O)[C@H](CC(=O)O)NC(=O)[C@H](CO)NC(=O)[C@@H](NC(=O)[C@](C)(Cc1ccccc1)NC(=O)[C@@H](NC(=O)CNC(=O)[C@H](CCC(N)=O)NC(=O)C(C)(C)NC(=O)[C@@H](N)Cc1c[nH]cn1)[C@@H](C)O)[C@@H](C)O)C(C)C)[C@@H](C)O)C(C)C)C(=O)N[C@@H](C)C(=O)NC(C)(C)C(=O)NCC(N)=O) [Peptide 513] | 93.8 pM | 1340 pM |

Second part, the binder after the results:

| hGLP-1R EC50 (pM) [1] | hGluc-R EC50 (pM) [2] | Binder |
| --- | --- | --- |
| 67.9 pM | 2800 pM | H[Aib]QGTFTSDVSK[αMeF]LESK([AEEA-AEEA-γGlu-C20 diacid])RAQDFVRWLVE[Aib]G-NH2 (N-terminus assumed; SMILES CC(C)C[C@H](NC(=O)[C@H](Cc1c[nH]c2ccccc12)NC(=O)[C@H](CCCNC(=N)N)NC(=O)[C@@H](NC(=O)[C@H](Cc1ccccc1)NC(=O)[C@H](CC(=O)O)NC(=O)[C@H](CCC(N)=O)NC(=O)[C@H](C)NC(=O)[C@H](CCCNC(=N)N)NC(=O)[C@H](CCCCNC(=O)COCCOCCNC(=O)COCCOCCNC(=O)CC[C@H](NC(=O)CCCCCCCCCCCCCCCCCCC(=O)O)C(=O)O)NC(=O)[C@H](CO)NC(=O)[C@H](CCC(=O)O)NC(=O)[C@H](CC(C)C)NC(=O)[C@](C)(Cc1ccccc1)NC(=O)[C@H](CCCCN)NC(=O)[C@H](CO)NC(=O)[C@@H](NC(=O)[C@H](CC(=O)O)NC(=O)[C@H](CO)NC(=O)[C@@H](NC(=O)[C@H](Cc1ccccc1)NC(=O)[C@@H](NC(=O)CNC(=O)[C@H](CCC(N)=O)NC(=O)C(C)(C)NC(=O)[C@@H](N)Cc1c[nH]cn1)[C@@H](C)O)[C@@H](C)O)C(C)C)C(C)C)C(=O)N[C@H](C(=O)N[C@@H](CCC(=O)O)C(=O)NC(C)(C)C(=O)NCC(N)=O)C(C)C) [Peptide 508] |
| 159 pM | 2310 pM | H[Aib]QGT[αMeF]TSDVSK[αMeF]LDTK([AEEA-AEEA-γGlu-C18 diacid])RAQD[αMeF]VRWLLA[Aib]G-NH2 (N-terminus assumed; SMILES CC(C)C[C@H](NC(=O)[C@H](CC(C)C)NC(=O)[C@H](Cc1c[nH]c2ccccc12)NC(=O)[C@H](CCCNC(=N)N)NC(=O)[C@@H](NC(=O)[C@](C)(Cc1ccccc1)NC(=O)[C@H](CC(=O)O)NC(=O)[C@H](CCC(N)=O)NC(=O)[C@H](C)NC(=O)[C@H](CCCNC(=N)N)NC(=O)[C@H](CCCCNC(=O)COCCOCCNC(=O)COCCOCCNC(=O)CC[C@H](NC(=O)CCCCCCCCCCCCCCCCC(=O)O)C(=O)O)NC(=O)[C@@H](NC(=O)[C@H](CC(=O)O)NC(=O)[C@H](CC(C)C)NC(=O)[C@](C)(Cc1ccccc1)NC(=O)[C@H](CCCCN)NC(=O)[C@H](CO)NC(=O)[C@@H](NC(=O)[C@H](CC(=O)O)NC(=O)[C@H](CO)NC(=O)[C@@H](NC(=O)[C@](C)(Cc1ccccc1)NC(=O)[C@@H](NC(=O)CNC(=O)[C@H](CCC(N)=O)NC(=O)C(C)(C)NC(=O)[C@@H](N)Cc1c[nH]cn1)[C@@H](C)O)[C@@H](C)O)C(C)C)[C@@H](C)O)C(C)C)C(=O)N[C@@H](C)C(=O)NC(C)(C)C(=O)NCC(N)=O) [Peptide 512] |
| 118 pM | 140 pM | H[Aib]QGTFTSDVSK[αMeF]LDTK([AEEA-AEEA-γGlu-C20 diacid])RARDFVRWLL[Aib]E-NH2 (N-terminus assumed; SMILES CC(C)C[C@H](NC(=O)[C@H](Cc1c[nH]c2ccccc12)NC(=O)[C@H](CCCNC(=N)N)NC(=O)[C@@H](NC(=O)[C@H](Cc1ccccc1)NC(=O)[C@H](CC(=O)O)NC(=O)[C@H](CCCNC(=N)N)NC(=O)[C@H](C)NC(=O)[C@H](CCCNC(=N)N)NC(=O)[C@H](CCCCNC(=O)COCCOCCNC(=O)COCCOCCNC(=O)CC[C@H](NC(=O)CCCCCCCCCCCCCCCCCCC(=O)O)C(=O)O)NC(=O)[C@@H](NC(=O)[C@H](CC(=O)O)NC(=O)[C@H](CC(C)C)NC(=O)[C@](C)(Cc1ccccc1)NC(=O)[C@H](CCCCN)NC(=O)[C@H](CO)NC(=O)[C@@H](NC(=O)[C@H](CC(=O)O)NC(=O)[C@H](CO)NC(=O)[C@@H](NC(=O)[C@H](Cc1ccccc1)NC(=O)[C@@H](NC(=O)CNC(=O)[C@H](CCC(N)=O)NC(=O)C(C)(C)NC(=O)[C@@H](N)Cc1c[nH]cn1)[C@@H](C)O)[C@@H](C)O)C(C)C)[C@@H](C)O)C(C)C)C(=O)N[C@@H](CC(C)C)C(=O)NC(C)(C)C(=O)N[C@@H](CCC(=O)O)C(N)=O) [Peptide 511] |
